The Immune Epitope Database (IEDB)

Biological target: HLA-B*54:01
Test: IEDB peptide-MHC binding, purified MHC/competitive/radioactivity; ≥ and ≤ were set here for values at or beyond the usual limits of such assays
Conditions: source organism: Homo sapiens

IC50 [nM] | Sequence
16.4 | FPKETFEGP
12.2 | FVEILIPVA
16.6 | SAPVNFISA
1.7 | YPVYQPVGP

Biological target: HLA-B*51:01
Test: as above
Conditions: source organism: Homo sapiens

Sequence | IC50 [nM]
DAPLNIRSI | 6.5
DAYPQRIKF | 31
DGLLRVLTV | 0.2
IIYPTPKVV | 38
TPESKIRFV | 84.8

Further lines, results first:

IC50 [nM] | Sequence
12.6 | DGLRDLPSI
13.4 | DGYVVKETI
144 | VALLVGEKV
56.3 | VPPLVPKVL
1790 | YIIEREPLI

Biological target: HLA-A*01:01
Test: as above
Conditions: source organism: Homo sapiens

IC50 [nM] | Sequence
191 | ATDGKVLLW
80.8 | DTEFPNFKY
1.3 | FLWPEAFLY
70.6 | KLDLLEQEY
11.1 | YVPEHWEYY

Biological target: HLA-A*29:02
Test: as above
Conditions: source organism: Homo sapiens

IC50 [nM] | Sequence
0.2 | FYPELKLAY
29.7 | GLPDLVAKY
1.6 | HFLDRHLVF
4.6 | LPLDIQIFY
2.6 | YLPALKVEY
